Laboratory results as given in PMC5290277, “Specialized interfaces of Smc5/6 control hinge stability and DNA association”.

T1: Smc5 hinge (extended-hinge);Smc6 hinge F528A (Schizosaccharomyces …, UniProt O13710;P53692 364-692;462-773, |F528A)
T1 sequence 1: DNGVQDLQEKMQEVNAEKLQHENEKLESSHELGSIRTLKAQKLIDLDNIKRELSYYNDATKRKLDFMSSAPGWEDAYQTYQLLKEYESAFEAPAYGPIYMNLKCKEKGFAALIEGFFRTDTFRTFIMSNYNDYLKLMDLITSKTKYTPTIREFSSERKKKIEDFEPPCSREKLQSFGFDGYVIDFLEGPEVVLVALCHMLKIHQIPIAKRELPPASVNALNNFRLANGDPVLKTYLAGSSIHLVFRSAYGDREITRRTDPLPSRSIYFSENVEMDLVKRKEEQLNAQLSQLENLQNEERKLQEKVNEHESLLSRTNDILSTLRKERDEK
T1 sequence 2: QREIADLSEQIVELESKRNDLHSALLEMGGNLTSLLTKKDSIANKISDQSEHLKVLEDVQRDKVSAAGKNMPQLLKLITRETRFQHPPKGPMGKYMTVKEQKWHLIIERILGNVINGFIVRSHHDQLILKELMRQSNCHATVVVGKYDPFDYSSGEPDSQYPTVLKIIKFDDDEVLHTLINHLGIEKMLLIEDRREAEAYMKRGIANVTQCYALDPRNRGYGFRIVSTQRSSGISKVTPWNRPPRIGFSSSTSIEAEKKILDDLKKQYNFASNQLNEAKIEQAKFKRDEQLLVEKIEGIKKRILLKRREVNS

T2: Smc5 hinge (extended-hinge);Smc6 hinge R706C (Schizosaccharomyces …, UniProt O13710;P53692 364-692;462-773, |R706C)
T2 sequence 1: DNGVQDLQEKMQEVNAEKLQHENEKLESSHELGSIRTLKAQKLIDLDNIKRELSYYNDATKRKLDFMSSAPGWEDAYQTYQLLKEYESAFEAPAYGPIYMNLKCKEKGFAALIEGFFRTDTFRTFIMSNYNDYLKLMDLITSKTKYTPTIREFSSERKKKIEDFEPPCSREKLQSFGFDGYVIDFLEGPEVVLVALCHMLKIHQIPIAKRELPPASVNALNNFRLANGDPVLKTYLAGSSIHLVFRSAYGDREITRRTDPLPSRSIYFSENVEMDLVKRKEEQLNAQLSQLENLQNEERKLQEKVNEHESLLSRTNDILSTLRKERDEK
T2 sequence 2: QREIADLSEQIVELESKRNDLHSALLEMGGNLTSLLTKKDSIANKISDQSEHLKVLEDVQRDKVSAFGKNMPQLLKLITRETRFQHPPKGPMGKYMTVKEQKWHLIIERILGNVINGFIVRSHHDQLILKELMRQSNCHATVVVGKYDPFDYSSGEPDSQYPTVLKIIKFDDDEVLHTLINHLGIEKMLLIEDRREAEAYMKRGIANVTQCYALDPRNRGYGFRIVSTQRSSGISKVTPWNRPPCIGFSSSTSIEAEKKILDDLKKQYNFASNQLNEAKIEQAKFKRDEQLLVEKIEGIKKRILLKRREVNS

T3: Smc5 hinge Y612A;Smc6 hinge (extended-hinge) (Schizosaccharomyces …, UniProt O13710;P53692 364-692;462-773, Y612A|)
T3 sequence 1: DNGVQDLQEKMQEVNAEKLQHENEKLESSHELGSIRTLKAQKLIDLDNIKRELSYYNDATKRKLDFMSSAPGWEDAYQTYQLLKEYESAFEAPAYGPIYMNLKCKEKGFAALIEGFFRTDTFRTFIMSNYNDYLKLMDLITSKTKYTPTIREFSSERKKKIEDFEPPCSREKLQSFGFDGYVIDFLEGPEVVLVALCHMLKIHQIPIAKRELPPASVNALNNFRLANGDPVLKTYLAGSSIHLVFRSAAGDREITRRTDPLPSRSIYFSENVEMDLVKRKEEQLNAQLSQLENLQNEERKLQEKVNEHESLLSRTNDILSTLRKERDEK
T3 sequence 2: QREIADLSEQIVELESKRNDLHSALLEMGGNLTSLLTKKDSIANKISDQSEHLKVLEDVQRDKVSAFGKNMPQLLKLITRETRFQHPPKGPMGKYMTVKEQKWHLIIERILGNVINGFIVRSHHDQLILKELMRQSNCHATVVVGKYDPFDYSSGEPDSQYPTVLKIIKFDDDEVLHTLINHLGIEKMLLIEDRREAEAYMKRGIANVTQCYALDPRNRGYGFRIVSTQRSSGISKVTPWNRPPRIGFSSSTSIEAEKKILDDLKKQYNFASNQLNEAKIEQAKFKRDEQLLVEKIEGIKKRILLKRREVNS

T4: Smc5 hinge (extended-hinge);Smc6 hinge (extended-hinge) (Schizosaccharomyces …, UniProt O13710;P53692 364-692;462-773, |)
T4 sequence 1: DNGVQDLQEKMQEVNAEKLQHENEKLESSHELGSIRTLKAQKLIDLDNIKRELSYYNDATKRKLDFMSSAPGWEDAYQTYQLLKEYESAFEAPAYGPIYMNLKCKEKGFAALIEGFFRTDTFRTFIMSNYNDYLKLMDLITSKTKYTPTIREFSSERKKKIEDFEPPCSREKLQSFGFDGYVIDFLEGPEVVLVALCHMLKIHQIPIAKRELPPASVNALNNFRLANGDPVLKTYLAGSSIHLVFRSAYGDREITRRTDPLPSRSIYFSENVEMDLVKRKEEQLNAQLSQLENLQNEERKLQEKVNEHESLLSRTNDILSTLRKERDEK
T4 sequence 2: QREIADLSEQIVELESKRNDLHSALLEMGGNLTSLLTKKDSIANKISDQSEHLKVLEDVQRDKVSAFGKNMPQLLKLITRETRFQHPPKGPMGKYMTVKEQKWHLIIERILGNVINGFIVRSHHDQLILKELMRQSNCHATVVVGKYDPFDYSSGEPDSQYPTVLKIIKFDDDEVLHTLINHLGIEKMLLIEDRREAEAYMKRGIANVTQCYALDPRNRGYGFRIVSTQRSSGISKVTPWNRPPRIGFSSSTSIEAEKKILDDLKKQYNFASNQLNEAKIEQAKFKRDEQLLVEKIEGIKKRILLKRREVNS


Experiments:
[1] = target: T1, Smc5 hinge (extended-hinge);Smc6 hinge …; assay: fluorescence polarization; 20 mM HEPES.NaOH pH 7.5, 100 mM NaCl, 1 mM EDTA, 0.5 mM TCEP, room temperature 10 min, 100 nM DNA (FP, EMSA); pull-down same buffer, protein incubation 4 C 30 min; switchSENSE buffer not given; conditions: protein: recombinant;recombinant, tags: N-terminal His6, HRV-3C cleaved;N-terminal StrepII, copies: 1;1, label: 5' fluorescein, single strand
[2] = target: T2, Smc5 hinge (extended-hinge);Smc6 hinge …; assay: as above; conditions: protein: recombinant;recombinant, tags: N-terminal His6, HRV-3C cleaved;N-terminal StrepII, copies: 1;1, label: 5' fluorescein, single strand
[3] = target: T3, Smc5 hinge Y612A;Smc6 hinge …; assay: as above; conditions: protein: recombinant;recombinant, tags: N-terminal His6, HRV-3C cleaved;N-terminal StrepII, copies: 1;1, label: 5' fluorescein, single strand
[4] = target: T4, Smc5 hinge (extended-hinge);Smc6 hinge …; assay: as above; conditions: protein: recombinant;recombinant, tags: N-terminal His6, HRV-3C cleaved;N-terminal StrepII, copies: 1;1, label: 5' fluorescein, single strand
[5] = target: T4, Smc5 hinge (extended-hinge);Smc6 hinge …; assay: switchSENSE; biphasic association and dissociation; 20 mM HEPES.NaOH pH 7.5, 100 mM NaCl, 1 mM EDTA, 0.5 mM TCEP, room temperature 10 min, 100 nM DNA (FP, EMSA); pull-down same buffer, protein incubation 4 C 30 min; switchSENSE buffer not given; conditions: protein: recombinant;recombinant, tags: N-terminal His6, HRV-3C cleaved;N-terminal StrepII, copies: 1;1, label: 3' Cy3, single strand, immobilized on gold

| Binder | Kd [1] [nM] | Kd [2] [nM] | Kd [3] [nM] | Kd [4] [nM] | binding result [5] |
| --- | --- | --- | --- | --- | --- |
| GCTCGTCTGGCTCTG (ssDNA) [15mer] | ~1700 | ~1600 | ~1300 | ~1200 |  |
| GTGTGAACCCTCCAACAAAGGTAGCATTTGCCAGCTCTCGTGATGCAG (ssDNA, 5' HS-(CH2)6 thiol linker) [switchSENSE 48mer] |  |  |  |  | binds |
